# Source: the supplement of paper PMC9732359
# ± gives the uncertainty stated by the source.
# Test: protein stability index of a GFP-peptide fusion (yeast GPS) (PSI 1-4); higher = more stable; sorted into four equal gates, so the index is relative within each strain
# How it was run: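 Yeast carrying a pooled library were grown to mid-log phase in leucine-free medium. Each library plasmid expresses Cherry and has a tiled 17-residue yeast protein peptide fused downstream of GFP. Cells were sorted into four equal gates by GFP/Cherry ratio, and plasmids from each gate were PCR-amplified, Illumina-sequenced and assigned to strains by barcode. Summing, across gates, the read frequency times the gate number gave each peptide's protein stability index.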
Sequence,protein stability index (doa10∆),protein stability index (pdr5∆),protein stability index (san1∆),protein stability index (ubr1∆)
TRISSQFEKSRKVSGPR [RET1],2.94 ± 0.27,2.92 ± 0.18,2.92 ± 0.098,2.75 ± 0.2
IQPKITELKKKLDDLEN [SMC1],3.11 ± 0.13,2.79 ± 0.13,3.11 ± 0.14,2.71 ± 0.14
KTTPNTASSEASAGSKE [YMR153W/NUP53],2.98 ± 0.052,3.34 ± 0.061,3.16 ± 0.046,3.12 ± 0.038
YTNSVELRSLSKKDFKI [YMR129W/POM152],2.41 ± 0.057,2.64 ± 0.058,2.32 ± 0.078,2.92 ± 0.069
VTLKGAKALESLASCLR [POP1],3.12 ± 0.073,2.94 ± 0.069,2.54 ± 0.078,2.74 ± 0.07
CRNDAVNWLAYTYLYVR [BRR2],3.25 ± 0.063,3.54 ± 0.046,3.18 ± 0.046,3.21 ± 0.043
DNEQNLESDFVTGASQF [PRE2],2.92 ± 0.095,3.33 ± 0.098,3.23 ± 0.077,2.96 ± 0.076
FQQQQQQQQQQQQPQPQ [PGD1],2.21 ± 0.11,2.7 ± 0.11,2.46 ± 0.2,3.05 ± 0.21
EKGKKVTGFKDEVLETV [RPS1A],1.32 ± 0.13,1.31 ± 0.1,,1.37 ± 0.1
SASVRALIENWAADSVS [FAS1],2.46 ± 0.078,2.48 ± 0.094,2.59 ± 0.097,2.76 ± 0.091
LGKRSILAAAHRDAYSG [PRE2],2.93 ± 0.2,3.26 ± 0.2,2.33 ± 0.18,2.85 ± 0.083
LLAQLNGTVNNNSALSN [RPT3],3.23 ± 0.25,2.25 ± 0.14,1.88 ± 0.097,2.34 ± 0.075
YGTRPLVLPPVVTSSVA [SNF2],2.04 ± 0.086,2.06 ± 0.071,1.76 ± 0.12,1.94 ± 0.051
SFGSKPTGKEEGDGAKA [YJL041W/NSP1],3.59 ± 0.12,3.31 ± 0.065,3.48 ± 0.11,3.21 ± 0.083
VLDSMTKEELESDGRMF [SRP54],3.02 ± 0.088,3.2 ± 0.089,3.37 ± 0.051,2.27 ± 0.059
PKVKEIKTVVLVPQLGH [PRP8],1.93 ± 0.088,2.25 ± 0.08,1.94 ± 0.14,2.31 ± 0.048
HKLVFVVRIKGINKIPP [RPL7A],1.4 ± 0.038,1.57 ± 0.046,1.52 ± 0.094,1.64 ± 0.053
PIKNRTSKSFSKLLYDD [SIN4],2.63 ± 0.07,2.73 ± 0.045,2.22 ± 0.086,2.64 ± 0.048
SFKYLSNNDEDDKDCTI [RGR1],2.51 ± 0.05,2.41 ± 0.04,2.18 ± 0.055,2.62 ± 0.034
LSQPVSASKHEYSDNFP [SIR4],2.24 ± 0.084,2.34 ± 0.046,2.82 ± 0.071,2.89 ± 0.046
KFGLLLQVSAQERKDFL [ECM29],1.6 ± 0.082,1.5 ± 0.056,1.59 ± 0.2,1.57 ± 0.047
YLLENNQVGTDELILPL [YDL116W/NUP84],3.18 ± 0.081,3.06 ± 0.11,3.07 ± 0.069,2.89 ± 0.057
NSSVGNKTDAQAPTTGF [YJL041W/NSP1],3 ± 0.072,3.15 ± 0.056,3.19 ± 0.058,2.96 ± 0.094
IEIEDEKVSSVLSALEG [RPP2A],2.88 ± 0.037,2.29 ± 0.034,2.81 ± 0.029,2.449 ± 0.024
LDLAGPLLAQLFKTLFK [RPB2],2.63 ± 0.038,1.25 ± 0.037,1.25 ± 0.078,1.18 ± 0.031

Sequence,protein stability index (doa10∆),protein stability index (pdr5∆),protein stability index (san1∆),protein stability index (ubr1∆)
SDFTFPEYYSTARVMGG [DIS3],1.57 ± 0.073,1.39 ± 0.084,,1.38 ± 0.13
PDEAIEKVFNAYPAARE [FAS1],2.94 ± 0.099,3.22 ± 0.1,3.11 ± 0.059,3.1 ± 0.093
HTIFSDVCKTRFNHLVT [YML031W/NDC1],2.27 ± 0.045,2.09 ± 0.044,2.15 ± 0.051,2.04 ± 0.034
FDDNDSGNNYNDINISS [MED2],3.08 ± 0.037,3.19 ± 0.039,3.05 ± 0.038,3.151 ± 0.028
DPLAKVNVLLQSYFSQL [BRR2],1.28 ± 0.049,1.78 ± 0.054,1.58 ± 0.092,1.54 ± 0.05
PYGSFHQQQLQQPHYIQ [DSN1],2.76 ± 0.063,2.98 ± 0.052,2.92 ± 0.044,3.1 ± 0.048
SIGEPATQMTLNTFHFA [RPO21],2.63 ± 0.091,3.04 ± 0.11,3.04 ± 0.15,2.75 ± 0.12
VMLKGIVTALLESDVNI [SRP54],1.3 ± 0.054,1.22 ± 0.067,1.18 ± 0.14,1.16 ± 0.066
IRNLTVFTMKELAQYMK [RGR1],3.04 ± 0.24,2.78 ± 0.22,2.71 ± 0.2,2.79 ± 0.08
LASRNKWDDLNEQLTLL [RPN5],2.99 ± 0.09,3.4 ± 0.072,3.26 ± 0.056,3.12 ± 0.047
DPFKTSSFNKRSKFLST [IRR1],2.15 ± 0.074,2.46 ± 0.053,2.04 ± 0.082,2.12 ± 0.057
QLLTPGSKISSNDLDKF [YGL172W/NUP49],2.88 ± 0.19,2.85 ± 0.084,3.13 ± 0.1,2.54 ± 0.2
YPFLLSFLGEAKSMAFL [YML103C/NUP188],2.18 ± 0.084,2.35 ± 0.067,2.29 ± 0.11,2.38 ± 0.048
ESSKALADSLDRCVDPE [DIS3],2.75 ± 0.084,2.27 ± 0.076,2.29 ± 0.21,2.38 ± 0.19
HGQLKLSIQYMIQKVME [RPN5],2.17 ± 0.1,2.73 ± 0.081,2.04 ± 0.15,2.84 ± 0.085
EKENRFEIVDREKNSLE [SMC4],2.63 ± 0.09,2.93 ± 0.11,3.1 ± 0.1,3.3 ± 0.085
VNDEEEHKQLVAEIVQN [RPC82],2.64 ± 0.12,2.54 ± 0.19,2.56 ± 0.14,1.66 ± 0.098
LLTLTNAANVPVENIWA [RPP1A],2.12 ± 0.081,2.56 ± 0.13,2.48 ± 0.11,2.55 ± 0.094
GSKSDGSAATSGFEFSK [RPN1],2.7 ± 0.14,3.09 ± 0.14,2.72 ± 0.14,3.1 ± 0.12
QFQRLAPSLTVPPIASP [PRE2],2.14 ± 0.053,2.03 ± 0.049,1.85 ± 0.055,2.15 ± 0.038
IVIDVDYNKKQDRIQDV [MED1],3.16 ± 0.15,3.13 ± 0.091,2.99 ± 0.094,3.09 ± 0.077
LLCDKAQKNTQSYGGRP [PRE5],3.17 ± 0.14,3.27 ± 0.095,3.37 ± 0.092,3.26 ± 0.077
PNIADYITAKNNVVINF [PRP8],2.11 ± 0.087,1.26 ± 0.065,1.43 ± 0.28,1.26 ± 0.067
DSPASNEDDLTVKLTEI [RPO31],2.94 ± 0.071,3.15 ± 0.068,2.97 ± 0.053,3.19 ± 0.056
LSLTTVPCDRIEKSRLF [SNF6],2.51 ± 0.065,2.64 ± 0.076,2.66 ± 0.053,2.29 ± 0.044
